# Test: soluble on expression in E. coli; label from the status in PepcDB or PDB records
row,Sequence,soluble on expression in E. coli
1,MLVVSIAGSPSVRSRSGVLLERARDWLSRRGVEVASHQVLDFPAEDLLRARLDSPPVLALAEQIGRADGLLVATPVYKASFSGALKVLLDLLPERALEHKVVLPFATGGSSAHMLAVDYALKPVLAALKAQEVLHGVFAVDKQIAYATESDPARLEPVLEQRLENALETFHLALSRRPQPIDPQLLNERLVNARWSI,soluble
2,MDSELKEEIPVHEEFILCGGAETQVLKCGPWTDLFHDQSVKRPKLLIFIIPGNPGFSAFYVPFAKALYSLTNRRFPVWTISHAGHALAPKDKKILTTSEDSNAQEIKDIYGLNGQIEHKLAFLRTHVPKDMKLVLIGHSIGSYFTLQMLKRVPELPVIRAFLLFPTIERMSESPNGRIATPLLCWFRYVLYVTGYLLLKPCPETIKSLLIRRGLQVMNLENEFSPLNILEPFCLANAAYLGGQEMMEVVKRDDETIKEHLCKLTFYYGTIDPWCPKEYYEDIKKDFPEGDIRLCEKNIPHAFITHFNQEMADMIADSLKDDLSKM,soluble
3,MGSDKIHHHHHHMALAKLPQLESVFLTDAGLETDFIFNRGIDLPYFASITLLQSSDGKIALEEYFRGFLELARRMRCGLILESATWRASPDWAEPLGLSQQELDTLNTSAIAILRDLRDEFGSTMPAVVISGCLGPRGDGYDPGKIMSEEGAEAYHRHQAEVLASAGVDQLTAITMTNVPEAIGIAKAAKSLAVPVAISFTVETDGRLPTGDRLSDALRAVDQATASTPAYYMINCAHPSHFAAVLEDGADWVNRIGGLRANASRCSHAEVDAMSELDRGNPEELAALHSELRLRFPHINVLGGCCGTDLDHITAIAEACL,not soluble
4,AHHHHHHGSYLSIGTLLHRPLSSNLCIAYEIATPAIYLSPGYFTTFPATYDEILLIVSTSLAFPYVWV,soluble
5,MDFYDTDELRDFMALVEKTNDIKKIALFRILAFTGIRKGELLALEWKDYRKSTLDINKAISHSPVGYEILPPKANSNRLLSLDEKTCKILDELHQTYPESTRIFESENGGMLSPSKPRKWLLEITKEKEIEPIRIHAFRHTHASLLFESGMSLKQVQYRLGHADLKTTMNIYTHITKLEHHHHHH,not soluble
6,MLQLLLFLIFCSFTNASSCQDKSPYCNPNDCEVRPGYAMVYCRKTCGNCADFCEDSKFITCSAERKKDCDDMLSDYCPRLCGKCYAKLKPDSKRTKTIPVTQFKRNPAATSTTTTTTRSPSIRMKQPRMLPNGTFINPPLPKYEKLDDTTYTIPEHPTVIDYPIAHMEELMIPEPQRIWPEPEPMRIEPISVYSPYSFVPVQPQVSQPYSPWSPTLGLSSSLDSSRRAPQNYFSSYSQYPQYPDEKLNTIAPNPMQLVEPFLTPGQNDLNPKSMSSLINLLGCKDKDEVICKHVTADTCLSRPGYYLKLCPVTCKNCSGYQCIDSIKIDCAEVKAQGACKLSVASEYCPRTCEYCNPPSDMAKTMSDCKDELETCEQLAESGACQHDFR,not soluble
7,EKTEQEQILIPVANPDTIEDLINLALVIRDTKQKKELIALNVINDNNNSENKELQGKRNLEKAAMIAASADVSVNMVSRYDLNIASGIIHTIKEYDATDVVIGLHRKANIVDSFFGNLAESLLKGTHREVIIAKFLMPVN,not soluble
8,MSAIEVTNLVKKFHGQTVLHGIDLEVKPGEVVAIIGPSGSGKTTLLRCINLLEQPEAGTIKVGDIIIDTARPFSQQKGLIRQLRQHVGFVFQSFNLFPHRTVLENIIEGPVIVKGEPKAEATALARELLAKVGLAGKESRYPRRLSGGQQQRVAIARALAMRPEVILFDEPTSALDPELVGEVLNTIRQLAQEKRTMVIVTHEMSFARDVADRAIFMDQGQIVEQGPAKTLFADPQHPRTRQFLEKFLVK,not soluble
9,RVESLMTHRSDIIALDLDDPVDENLKKMIASGRSNFPVYERDLDDVIGIVSVKDVLAKLVESGKVDIRASVTKPLFAPEAITILKLLESFKETGMHIALITDEYGSVQGIITLHDILEAIVGDVRSLGEPEEEQI,not soluble
10,MRALIRYEDVPSKLWTLPKMTDFWGIGKRTEKRLNKLGISSIKELTNADPLLLKQKLGTIGLQHFFHANGIDESNVRLEHHHHHH,not soluble
11,RQRTASLIDTNHWLSRIIDLVPHPIFLKDHNGKYLLANIAQGELFGKKPEELLGKTDIDFVYNSDEYVVIKQSDDKVVSTRKTVVLPEQIVTLGDIKYYLYTSKVPLISPVDGELRILGVSINLT,not soluble
